The target in one test is T1, bovine serum albumin (bovine, UniProt P02769 25-607).
T1 construct: also called BSA
Briefly: EIA, supernatant 1:25 captured on sheep anti-mouse IgG Fc, BSA in place of antigen. The procedure:
Cell supernatant samples were analyzed for anti-GP73 antibodies by EIA. Sheep anti-mouse IgG Fc (Jackson Immunoresearch) was coated on 96 well micro-titer EIA plates at 1 μg/mL. After the capture reagent was coated on the solid phase, it was removed and the plates were blocked using a BSA/PBS block solution. The wells were washed with distilled water and cell supernatants were added to the blocked plates and allowed to incubate at room temperature for at least one hour. A mouse monoclonal antibody 14H4-23 (Drexel University) was used a positive control. The anti-mouse IgG Fc captured the anti-GP73 mouse antibody from the supernatant. Following the incubation, the supernatants were washed off using distilled water. An irrelevant mouse-human chimeric antibody was added to all wells and incubated at room temperature for 30 min to block any captured mouse antibodies that react with the human IgG Fc fusion protein linked to the GP73 antigen. The wells were washed with distilled water and GP73-hFc was added to the plates at 200 ng/mL and incubated for 30 min. Following this incubation, the antigen was washed from the plates using distilled water. Biotin labeled goat anti-GP73 was added to the plates at 200 ng/mL and incubated for 30 min at room temperature. The plates were washed and streptavidin-HRPO (Jackson Immunoresearch) (diluted to approximately 200 ng/mL) was added to the plates and allowed to incubate for 30 min. The plates were washed with distilled water and OPD substrate was used as the chromagen to generate signal. Plates were read at 492 nm and the results were analyzed.
Positive clones were expanded to 24 well plates in IMDM supplemented with 10% FBS and HT supplement. Following 5-14 days growth, the 24 well cultures were evaluated by EIA in the same manner as previously described, except the supernatant samples were titrated against GP73-hFc and BSA to eliminate non-specific protein binders. Once again the clones generating signal at least 3 times greater than background were considered positive and selected for further evaluation.

Test [1] has as its target T2, E. coli expressed human GP73 (amino acids 63 to 400) with C-terminal 6xHis tag (human, UniProt Q8NBJ4 64-401).
T2 construct: No human Fc, not glycosylated; also called GP73 produced in E. coli; E. coli GP73
T2 sequence: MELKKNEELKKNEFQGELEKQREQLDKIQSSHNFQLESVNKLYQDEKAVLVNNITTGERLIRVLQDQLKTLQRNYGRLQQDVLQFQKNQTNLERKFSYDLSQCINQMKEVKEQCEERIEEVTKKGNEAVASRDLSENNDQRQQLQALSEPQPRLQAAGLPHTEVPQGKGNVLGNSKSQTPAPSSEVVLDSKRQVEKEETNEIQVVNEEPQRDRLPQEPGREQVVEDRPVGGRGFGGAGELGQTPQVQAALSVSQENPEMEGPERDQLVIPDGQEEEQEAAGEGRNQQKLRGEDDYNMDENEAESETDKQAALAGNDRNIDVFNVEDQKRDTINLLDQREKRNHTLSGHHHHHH
Briefly: Binds E. coli GP73 (summary table; EIA on coated E. coli GP73). The procedure: The purified anti-GP73 mAbs were tested for EIA reactivity to human IgG, GP73 produced in E. coli, and GP73-hFc produced in HEK 293 cells. A mouse-human chimeric antibody, GP73 produced in E. coli, and GP73-hFc produced in HEK 293 cells were coated on micro titer plates at approximately 1000 ng/mL and allowed to incubate over night at 4-8° C. After the capture reagent was coated on the solid phase, it was removed and blocked using a BSA/PBS block solution. The wells were washed with distilled water. Purified anti-GP73 and negative control mAbs were added to the blocked plates in serial dilutions starting at 1000 ng/mL and allowed to incubate at room temperature for approximately 30 min. The wells were washed with distilled water. Goat anti-mouse IgG-HRP (Jackson Immunoresearch) was added to the wells at approximately 250 ng/mL and allowed to incubate for approximately 30 min at room temperature. The plates were washed with distilled water and OPD substrate was used as the chromagen to generate signal. Plates were read at 492 nm and the results were analyzed.

The target in test [2] is T2, E. coli expressed human GP73 (amino …). Briefly: Western blot on E. coli expressed GP73 antigen. The procedure: The mammalian cell (HEK and CHO) expressed GP73-hFc or E. coli expressed GP73, as described above, were electrophoresed in a 4-20% SDS-PAGE gel. […] The nitrocellulose membrane was blocked with PBS buffer containing 5% non-fat dry milk and 0.05% Tween 20 for about 1 hr. The nitrocellulose membrane was incubated with an appropriate amount of anti-GP73 monoclonal antibody in 10 mL of 2.5% non-fat dry milk and 0.05% Tween 20 PBS buffer, pH 7.2. The nitrocellulose membranes were washed with 0.05% Tween 20/PBS, pH 7.2, incubated with goat anti-mouse IgG antibody conjugated with HRP for 1 hr at room temperature, and washed with 0.05% Tween 20/PBS buffer. Antibody bound to the GP73 protein was visualized by the addition of freshly prepared metal enhanced 3,3′-Diaminobenzidine in stable peroxide buffer (Pierce, Ill.).
A general note: In western blotting, separated proteins are transferred to a membrane and probed.

T1 sequence (P02769 25-607 limits assumed): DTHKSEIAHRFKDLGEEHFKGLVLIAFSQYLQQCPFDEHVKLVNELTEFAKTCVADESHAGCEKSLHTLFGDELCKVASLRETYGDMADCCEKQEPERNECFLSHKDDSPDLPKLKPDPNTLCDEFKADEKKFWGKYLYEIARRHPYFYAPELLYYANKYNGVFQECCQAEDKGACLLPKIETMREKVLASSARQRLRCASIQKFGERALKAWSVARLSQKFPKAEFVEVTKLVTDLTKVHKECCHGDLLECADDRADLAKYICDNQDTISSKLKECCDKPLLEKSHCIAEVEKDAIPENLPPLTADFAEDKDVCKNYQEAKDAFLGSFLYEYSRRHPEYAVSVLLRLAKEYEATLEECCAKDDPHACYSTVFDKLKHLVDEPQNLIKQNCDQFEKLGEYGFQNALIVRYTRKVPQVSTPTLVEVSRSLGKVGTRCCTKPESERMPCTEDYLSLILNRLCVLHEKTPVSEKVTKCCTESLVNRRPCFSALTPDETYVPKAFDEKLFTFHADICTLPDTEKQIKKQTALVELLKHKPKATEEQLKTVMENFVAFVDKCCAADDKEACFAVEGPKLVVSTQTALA

B1: anti-GP73 monoclonal antibody 1B-4971 (antibody, V domains shown)
VH: QVQLQQSGPALVKPGASVKMSCKASGYTFTNYVIHWVKQKPGQGLERIGYIWPYNDGTKFNEKFKGKATLTSDKSSSTAYMELSSLTSEDSAVYYCSSQQLAYWGQGTTLTVSS
VL: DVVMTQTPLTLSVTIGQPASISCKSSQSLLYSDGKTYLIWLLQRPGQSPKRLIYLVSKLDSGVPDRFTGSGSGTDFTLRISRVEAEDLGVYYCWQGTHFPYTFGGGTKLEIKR
notes: Biotin labelled in some assays; also called mAb 1B-4971; 1B-4971-Bt
As to B1, the “BSA Background OD (A492)” value with bovine serum albumin is 0.1 OD (A492). In addition, the binding result in test [1] was “binds”.

B2: anti-GP73 monoclonal antibody 1B-3440 (antibody, V domains shown)
VH: EVQLVETGGGLVQPKGSLKLSCAASGFTFNTNAMNWVRQAPGKGLEWVARIRTKRYNYTTFYADSVKDRFTISRDDSQSMLFLQMNNLKTEDTAMYYCVTGGTGTFDYWGQGTTLTVSS
VL: EIVLTQSPTTMPASPGEKVTFTCSASSGISSNYLHWYQLKPGFSPKLLIYRTSNLASGVPARFSGGGSGTSYSLTIGTMEAEDVATYYCQQGFSIPLTFGAGTKLELKR
notes: Biotin labelled in some assays; also called mAb 1B-3440; 1B-3440-Bt
On to B2, for which the “BSA Background OD (A492)” value with bovine serum albumin is 0.09 OD (A492). In addition, the binding result in test [1] was “binds”.

B3: anti-GP73 monoclonal antibody 1B-4863 (antibody, V domains shown)
VH: QVQLKESGPGLVAPSQSLSITCTVSGFSLTSYGVHWVRQSPGKGLEWLGVIWTGGSTNYNSALMSRLSISKDNSESQVFLKVNSLQTDDTGMYYCARDPGTDYFDYWGQGTTLTVSS
VL: DIVMTQSHKFMSTSIGDRVSISCKASQDVSIDVSWYQQKPGQSPTLLIYSASYRYIGVPDRFTGSGSGTAFTFTISSVQAEDLAIYYCQQHFTTPLTFGAGTKLELKR
notes: Biotin labelled in some assays; also called mAb 1B-4863; 1B-4863-Bt
Regarding B3, the “BSA Background OD (A492)” value in the test with bovine serum albumin was 0.06 OD (A492). Also, in test [2], the binding result is “binds”.
